# Data reported in patent publication US5952216.
# What was measured:
# Test in all cases: ELISA on Sf9 extract, absorbance at 405 nm normalized to H16.D9
# [1] = target: HPV16:D202H L1 (human papillomavirus type 16) (UniProt P03101)
# [2] = target: HPV16:D202E virus-like particles (human papillomavirus type 16) (UniProt P03101)
# [3] = target: HPV11 L1 virus-like particles (human papillomavirus type 11) (UniProt P04012)
# [4] = target: HPV16 L1 virus-like particles (human papillomavirus type 16) (UniProt P03101)
Substance,normalized ELISA value (normalized with H16.D9) [1],normalized ELISA value (normalized with H16.D9) [2],normalized ELISA value (normalized with H16.D9) [3],normalized ELISA value (normalized with H16.D9) [4]
MAb H16.V5 (antibody),0.19,0.15,0.06,1.08
MAb H16.U4 (antibody),0.21,0.59,0.06,0.79
